In PMC5551697 (The Journal of Cell Biology, 2017):

Legend:
[1] = target: the molecule itself; experiment: AUC
[2] = target: T1, GST-Aim21 (S. cerevisiae, UniProt P40563 1-679); experiment: pull-down
T1 sequence (looked up): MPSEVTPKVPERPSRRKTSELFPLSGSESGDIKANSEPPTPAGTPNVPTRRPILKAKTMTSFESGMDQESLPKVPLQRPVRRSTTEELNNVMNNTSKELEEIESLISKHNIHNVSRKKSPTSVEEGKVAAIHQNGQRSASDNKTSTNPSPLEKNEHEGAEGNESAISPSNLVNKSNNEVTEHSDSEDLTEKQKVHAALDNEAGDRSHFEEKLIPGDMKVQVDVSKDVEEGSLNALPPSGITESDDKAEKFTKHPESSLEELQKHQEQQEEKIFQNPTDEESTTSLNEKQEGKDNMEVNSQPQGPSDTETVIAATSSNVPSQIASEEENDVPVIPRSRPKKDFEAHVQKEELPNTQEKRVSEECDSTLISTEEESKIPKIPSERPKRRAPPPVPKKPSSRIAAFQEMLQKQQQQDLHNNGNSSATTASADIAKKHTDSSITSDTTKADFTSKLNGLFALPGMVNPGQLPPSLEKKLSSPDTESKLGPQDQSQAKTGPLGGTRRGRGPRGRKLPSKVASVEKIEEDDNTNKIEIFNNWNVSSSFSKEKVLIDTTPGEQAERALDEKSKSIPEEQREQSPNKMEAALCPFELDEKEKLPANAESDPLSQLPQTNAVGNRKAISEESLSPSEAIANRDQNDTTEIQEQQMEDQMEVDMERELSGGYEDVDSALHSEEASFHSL

[3] = target: T2, reconstituted Tda2–Aim21 complex (GST-Aim21–His-Tda2 complex) (S. cerevisiae, UniProt P40563 1-679; P40045 1-126); experiment: pull-down
T2 sequence (looked up) 1: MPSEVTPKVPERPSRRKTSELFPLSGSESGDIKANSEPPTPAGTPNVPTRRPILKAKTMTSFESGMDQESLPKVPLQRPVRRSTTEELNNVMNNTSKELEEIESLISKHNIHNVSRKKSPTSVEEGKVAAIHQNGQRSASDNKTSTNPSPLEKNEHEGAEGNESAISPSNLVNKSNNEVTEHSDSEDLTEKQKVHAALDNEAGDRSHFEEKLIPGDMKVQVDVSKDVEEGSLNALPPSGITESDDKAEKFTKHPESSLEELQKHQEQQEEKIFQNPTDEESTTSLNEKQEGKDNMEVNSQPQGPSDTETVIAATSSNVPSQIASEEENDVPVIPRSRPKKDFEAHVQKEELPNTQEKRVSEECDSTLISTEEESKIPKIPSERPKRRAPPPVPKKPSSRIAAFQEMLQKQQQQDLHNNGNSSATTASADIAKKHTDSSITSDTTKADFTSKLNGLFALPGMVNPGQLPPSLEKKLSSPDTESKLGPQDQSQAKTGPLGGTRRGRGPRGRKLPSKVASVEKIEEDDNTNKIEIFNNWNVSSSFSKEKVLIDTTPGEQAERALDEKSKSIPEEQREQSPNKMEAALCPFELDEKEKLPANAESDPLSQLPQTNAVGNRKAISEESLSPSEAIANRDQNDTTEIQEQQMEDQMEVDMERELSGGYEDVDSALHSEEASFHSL
T2 sequence (looked up) 2: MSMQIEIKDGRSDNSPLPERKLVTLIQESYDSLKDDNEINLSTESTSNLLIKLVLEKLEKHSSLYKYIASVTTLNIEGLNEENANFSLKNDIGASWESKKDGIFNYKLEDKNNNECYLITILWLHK

B1: recombinant 6-histidine-tagged Tda2 (natural protein, S. cerevisiae, UniProt P40045 1-126, looked up)
chain: MSMQIEIKDGRSDNSPLPERKLVTLIQESYDSLKDDNEINLSTESTSNLLIKLVLEKLEKHSSLYKYIASVTTLNIEGLNEENANFSLKNDIGASWESKKDGIFNYKLEDKNNNECYLITILWLHK
**Q.** B1 was tested. Which “stoichiometry N” value [1] did it give?
**A.** Its value is 2.

**Q.** Does B1 bind [2]?
**A.** Result: binds

B2: actin-capping protein carrying a 6His-tag in its Cap1 subunit (His-Cap1/Cap2 dimer) (complex, S. cerevisiae)
chain 1: MSSSKFEEVINKIINDSPPGELREVYDDLIKITSENSKNTILDAIENYNVQNCIPIEVNGNSVIISKYNKEGAKFFDPVNSVIFSVNHLERKGLDIEPYEFTHAKIEKGQLKELHDKLHEYLLQSFPGDVSFAVYPVPEEISKISIIIVSTKYNPNNFWNGHWRSSYIYDLETRELSGQISTQVHYYEDGNVSFQSGKDINQSNVDDVVCTIRDIETNFENDLDLSFFDLNEKQFKALRRRLPVTRSKINWGSAIGSYRLGKNAAEGK
chain 2: MSDAQFDAALDLLRRLNPTTLQENLNNLIELQPNLAQDLLSSVDVPLSTQKDSADSNREYLCCDYNRDIDSFRSPWSNTYYPELSPKDLQDSPFPSAPLRKLEILANDSFDVYRDLYYEGGISSVYLWDLNEEDFNGHDFAGVVLFKKNQSDHSNWDSIHVFEVTTSPSSPDSFNYRVTTTIILHLDKTKTDQNSHMMLSGNLTRQTEKDIAIDMSRPLDVIFTSHVANLGSLIEDIESQMRNLLETVYFEKTRDIFHQTKNAAIASSAEEANKDAQAEVIRGLQSL
**Q.** Does B2 bind [3]?
**A.** Result: binds
